Holding throughout (type): biochemical
The test system of assay [1] is FITC-labelled LPXTGE, DNPNTGDE, ENPXTNAGT, KLPXTASN and ALAXTGSE peptides. As to the kind of experiment: Sortase activity assay, gel-based, FITC-labelled peptide substrates. The note with it: conjugation to 60 kDa Gly6 protein, 25° C., 6 to 24 hours, FITC emission. The protocol:
The reaction was performed at 25° C. for 6 to 24 hours, and stopped by addition of reducing SDS-PAGE loading buffer, followed by 5 min. incubation at 95° C. Reaction products were loaded on a 12% SDS-PAGE gel and run according to standard protocols. Labelled reaction products were visualized by FITC emission using the FLA-9000 Imager from Fujifilm, and quantified using ImageJ software.

The test system of assay [2] is FITC-labelled LPQTGE peptide and GGGK-biotin. Briefly: Optimization of sortase conjugation reaction conditions, HPLC-based assay. The settings on record: initial rate (samples up to 3 hours), RP-HPLC, pH 8.5, NaCl, 25° C.
Protocol: The reaction was performed at 25° C. over a period of 24 hours (with 6 samplings in the period up to 3 hours), independently varying the following parameters: • pH over a range of 4 to 11 (using a mixture of boric and citric acid, along with phosphate buffer to achieved the desired pH), while the concentration of NaCl at 500 mM; • NaCl concentration over a range of 0 to 3 M, while maintaining the pH at 8.5 (using 50 mM of sodium phosphate to establish the desired pH).
The reaction was stopped by adding 95 μL of 0.05 M HCl per 5 μL of reaction mixture. Reaction products were loaded into XBridge C18 HPLC columns equilibrated in 0.1% NH4OH in 5% methanol. Elution was performed with a linear gradient from 0 to 100% of 0.1% NH4OH in 95% methanol over 10 mL at flow rate of 0.5 mL/min and a temperature of 30° C. Eluted peptides were detected by absorbance at 497 nm and fluorescence at 522 nm (excitation at 497 nm) and peak areas were quantified.
Assay [3] concerns self-quenching peptide Dabcyl-QALPQTGET-Edans and triglycine. As to the kind of experiment: Optimization of sortase conjugation reaction conditions, fluorescence assay. The settings on record: initial rate, temperature varied 15 to 45° C., pH 8.5, 500 mM NaCl. The protocol: Reactions were performed over a period of 1 hour, varying the reaction temperature between 15 and 45° C. and measuring fluorescence over time (using a plate reader or fluorescence spectrometer, with excitation at 350 nm and emission at 495 nm).
Initial rate of sortase F-mediated ligation at different temperatures was evaluated based on regression of the fluorescence over time.

B1: sortase F: recombinant sortase F enzyme from P. acnes KPA171202, with N-terminal MS peptide and C-terminal TwinStrep-comprising tag (protein)
chain: TTTSSTSGIPAASAAKKGPVPAGCMKTPKPIVPVKYSIDGMKASAKVLSRGVDETGAAGAPPKNDPSSMAWFNQGPKIGSDKGNAVLTAHTYHKGGALGNRLYDKNNGIKKGDIIRLTDKTGQTVCYRYDHDTKVMVKDYNPNSNILYDNNGPAQAAIVICWDYVKKTGEFDSRVIFYTYPVA
modifications: Propionibacterium acnes
Take B1: the “substrate peptide on which the enzyme is active” value in assay [1] is reported as “principally active on the LPXTGE”. Also, the “salt concentration optimum for initial sortase F activity rate” value in assay [2] is listed as “above 250 mM”. In addition, in assay [3], the “temperature above which the reaction rate decreased” value was “above 40 °C” and the “temperature optimum of sortase F activity rate” value is “about 25 °C”.

For the origin of these results see US12533420B2 (NBE-Therapeutics AG, priority 2018, dated 2026).
